Measurements as given in EP3461842A1 (Amgen Research (Munich) GmbH, dated 2019).

T1: 1-27 CD3-EpCAM, human 27 mer (N-terminal amino acids 1-27 of human CD3 epsilon, Flag tag, cynomolgus EpCAM) (human; cynomolgus monkey)
T1 chain: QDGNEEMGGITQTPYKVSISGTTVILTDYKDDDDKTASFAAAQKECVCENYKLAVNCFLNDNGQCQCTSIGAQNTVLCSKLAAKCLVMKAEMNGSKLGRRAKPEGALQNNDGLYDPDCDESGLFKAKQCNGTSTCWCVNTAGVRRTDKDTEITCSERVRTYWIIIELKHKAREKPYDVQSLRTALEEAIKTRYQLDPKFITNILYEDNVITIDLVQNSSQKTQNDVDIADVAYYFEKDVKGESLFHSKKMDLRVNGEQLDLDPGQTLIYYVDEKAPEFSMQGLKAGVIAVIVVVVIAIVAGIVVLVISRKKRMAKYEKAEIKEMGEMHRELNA

T2: 1-27 CD3-EpCAM, squirrel monkey 27 mer (Saimiri sciureus CD3 epsilon 1-27, Flag tag, cynomolgus EpCAM) (Saimiri sciureus; cynomolgus monkey)
T2 construct: On transfected cells
T2 chain: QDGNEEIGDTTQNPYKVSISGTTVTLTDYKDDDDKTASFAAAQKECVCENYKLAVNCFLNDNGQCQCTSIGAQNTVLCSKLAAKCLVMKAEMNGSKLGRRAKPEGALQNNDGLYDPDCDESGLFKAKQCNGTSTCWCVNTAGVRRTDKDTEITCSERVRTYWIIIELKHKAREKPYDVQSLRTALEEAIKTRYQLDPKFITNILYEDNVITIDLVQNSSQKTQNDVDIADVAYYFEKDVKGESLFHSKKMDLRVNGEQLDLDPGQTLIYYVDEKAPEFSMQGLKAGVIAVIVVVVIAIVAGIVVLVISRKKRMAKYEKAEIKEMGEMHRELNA

T3: 1-27 CD3-EpCAM, swine 27 mer (Sus scrofa CD3 epsilon 1-27, Flag tag, cynomolgus EpCAM) (Sus scrofa; cynomolgus monkey)
T3 construct: Negative control, on transfected cells
T3 chain: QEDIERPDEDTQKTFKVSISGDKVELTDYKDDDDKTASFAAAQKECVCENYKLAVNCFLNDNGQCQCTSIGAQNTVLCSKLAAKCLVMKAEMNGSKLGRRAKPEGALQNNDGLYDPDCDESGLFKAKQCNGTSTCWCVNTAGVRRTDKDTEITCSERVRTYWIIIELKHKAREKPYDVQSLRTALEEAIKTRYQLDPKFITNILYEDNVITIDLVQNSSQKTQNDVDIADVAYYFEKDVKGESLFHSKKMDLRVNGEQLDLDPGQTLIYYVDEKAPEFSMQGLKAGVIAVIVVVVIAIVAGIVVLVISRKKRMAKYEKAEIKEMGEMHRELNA


Experiments:
[1] = target: T4, human CD3 (epsilon) on human T cells (HPB-ALL cell line, human PBMC) (human, UniProt P07766 23-207); assay: FACS, HPB-ALL
T4 construct: whole, on cells; also called native CD3

[2] = target: T5, 1-27 CD3-Fc (N-terminal amino acids 1-27 of the mature human CD3 epsilon chain fused to the hinge and Fc … (human)); assay: SPR (Biacore 2000), 1-27 CD3-Fc coupled to CM5 chip, Langmuir model
T5 construct: The synthetic gene also codes a 19 amino acid immunoglobulin leader; also called 27 aa huCD3E; human CD3 epsilon (aa 1-27)- Fc fusion protein

[3] = target: T5, 1-27 CD3-Fc (N-terminal amino acids …); assay: ELISA, captured 1-27 CD3-Fc, periplasmic scFv
[4] = target: T1, 1-27 CD3-EpCAM, human 27 mer …; assay: FACS, 293-HEK transfectant
[5] = target: T2, 1-27 CD3-EpCAM, squirrel monkey 27 mer …; assay: FACS, 293-HEK transfectant
[6] = target: T3, 1-27 CD3-EpCAM, swine 27 mer (Sus …); assay: FACS on transfected 293-HEK cells

T4 sequence (P07766 23-207): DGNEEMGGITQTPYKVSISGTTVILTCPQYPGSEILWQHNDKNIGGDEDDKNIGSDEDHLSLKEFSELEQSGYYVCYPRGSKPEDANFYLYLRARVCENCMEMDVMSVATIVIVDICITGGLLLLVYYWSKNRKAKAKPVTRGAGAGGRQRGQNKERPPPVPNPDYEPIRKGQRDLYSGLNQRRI

Binder	Kd [2]	binding result [3]	further results
MCSP-G4 HLP x E2M HLP (bispecific antibody, plus C-terminal His6 tag) QVQLVQSGAEVKRPGASMKVSCKASGYTFTNYYIHWVRQAPGQGLEWMGWINPNSGATNYAQKFQGRVTMTRDTSTSTVYMELSSLRSEDTAVYYCAKSWVSWFASWGQGTLVTVSSGGGGSGGGGSGGGGSELVMTQSPDSLAVSLGERATINCKSSQSVLNSSNNRNYLAWYQQKPGQPPKLLIYWASTRESGVPDRFSGSGSGTDFTLTISGLQAEDVAVYYCQQHYSTPFTFGPGTKVDIKSGGGGSEVQLLESGGGLVQPGGSLKLSCAASGFTFNGYAMNWVRQAPGKGLEWVARIRSKYNNYATYYADSVKERFTISRDDSKNTAYLQMNNLKTEDTAVYYCVRHRNFGNSYLSWFAYWGQGTLVTVSSGGGGSGGGGSGGGGSELVVTQEPSLTVSPGGTVTLTCRSSTGAVTSGYYPNWVQQKPGQAPRGLIGATDMRPSGTPARFSGSLLGGKAALTLSGVQPEDEAEYYCALWYSNRWVFGGGTKLTVL	–	–	binding result [1]: binds
EGFR-21-63 LH x A2J HLP (bispecific antibody, plus C-terminal His6 tag; also called EGFR LH x A2J HLP) DIVLTQSPASLPVSLGQRATISCRASQSVSSSTYSYIHWYQQKPGQPPKLLITYASNLESGVPARFSGSGSGTDFTLDIHPVEEDDSSTYYCQHSWEIPFTFGSGTKLEIKGGGGSGGGGSGGGGSQVQLQQSGPDLVKPGASVKMSCKASGHTFTDCVIIWVKQRAGQGLEWIGQIYPGTGRSYYNEIFKGKATLTADKSSNTVHIQLSSLTSEDSAVYFCALSTLIHGTWFSYWGQGTLVTVSSGGGGSEVQLLESGGGLVQPGGSLKLSCAASGFTFNVYAMNWVRQAPGKGLEWVARIRSKYNNYATYYADSVKKRFTISRDDSKNTAYLQMNNLKTEDTAVYYCVRHGNFGNSYLSWWAYWGQGTLVTVSSGGGGSGGGGSGGGGSELVVTQEPSLTVSPGGTVTLTCRSSTGAVTSGYYPNWVQQKPGQAPRGLIGATDMRPSGTPARFSGSLLGGKAALTLSGVQPEDEAEYYCALWYSNRWVFGGGTKLTVL	249 nM	–	–
EGFR-21-63 LH x E2M HLP (bispecific antibody, plus C-terminal His6 tag; also called EGFR LH x E2M HLP) DIVLTQSPASLPVSLGQRATISCRASQSVSSSTYSYIHWYQQKPGQPPKLLITYASNLESGVPARFSGSGSGTDFTLDIHPVEEDDSSTYYCQHSWEIPFTFGSGTKLEIKGGGGSGGGGSGGGGSQVQLQQSGPDLVKPGASVKMSCKASGHTFTDCVIIWVKQRAGQGLEWIGQIYPGTGRSYYNEIFKGKATLTADKSSNTVHIQLSSLTSEDSAVYFCALSTLIHGTWFSYWGQGTLVTVSSGGGGSEVQLLESGGGLVQPGGSLKLSCAASGFTFNGYAMNWVRQAPGKGLEWVARIRSKYNNYATYYADSVKERFTISRDDSKNTAYLQMNNLKTEDTAVYYCVRHRNFGNSYLSWFAYWGQGTLVTVSSGGGGSGGGGSGGGGSELVVTQEPSLTVSPGGTVTLTCRSSTGAVTSGYYPNWVQQKPGQAPRGLIGATDMRPSGTPARFSGSLLGGKAALTLSGVQPEDEAEYYCALWYSNRWVFGGGTKLTVL	2460 nM	–	–
A2J HLP single-chain antibody (scFv, Crude periplasmic preparation, Flag and His6 tags) scFv: EVQLLESGGGLVQPGGSLKLSCAASGFTFNVYAMNWVRQAPGKGLEWVARIRSKYNNYATYYADSVKKRFTISRDDSKNTAYLQMNNLKTEDTAVYYCVRHGNFGNSYLSWWAYWGQGTLVTVSSGGGGSGGGGSGGGGSELVVTQEPSLTVSPGGTVTLTCRSSTGAVTSGYYPNWVQQKPGQAPRGLIGATDMRPSGTPARFSGSLLGGKAALTLSGVQPEDEAEYYCALWYSNRWVFGGGTKLTVL	–	binds	–
E2M HLP single-chain antibody (scFv, Crude periplasmic preparation, Flag and His6 tags) scFv: EVQLLESGGGLVQPGGSLKLSCAASGFTFNGYAMNWVRQAPGKGLEWVARIRSKYNNYATYYADSVKERFTISRDDSKNTAYLQMNNLKTEDTAVYYCVRHRNFGNSYLSWFAYWGQGTLVTVSSGGGGSGGGGSGGGGSELVVTQEPSLTVSPGGTVTLTCRSSTGAVTSGYYPNWVQQKPGQAPRGLIGATDMRPSGTPARFSGSLLGGKAALTLSGVQPEDEAEYYCALWYSNRWVFGGGTKLTVL	–	binds	binding result [4]: binds; binding result [5]: binds; binding result [6]: no binding
